Source: publication PMC5943054

Biological target: TgPLP1 MACPF domain (residues 462 to 809, N720Q/N744Q), trypsinized in situ (TMH2 cut away) (Toxoplasma gondii) (UniProt V5BCL0)
Assay: crystal structure; second crystal form of the trypsinized MACPF domain, about 5 Å (5.0 in text, 5.11 in Table 1); 0.1 M Hepes pH 7.5, 10% alcohol mixture, 15% PEG-1000, 15% PEG-3350, 15% MPD; ring assembly, rigid-body refinement only

How did the stoichiometry N turn out when “TgPLP1 MACPF domain (residues 462 to 809, N720Q/N744Q), trypsinized in situ (TMH2 cut away) (from UniProt V5BCL0 462-809) (domain or fragment)” was run?
The stoichiometry N was 6.
